Data published in patent EP0938497B1.

Target: IgG
Assay: microcalorimetry and surface plasmon resonance

Kd: 100 µM
Substance: locked helix peptide FNM(5)QQRRFY(6)ALH, cyclized (Fig. 11)
